Laboratory results as given in patent publication US20220257632A1, “MICROLUMENAL TARGETING OF CANCER CELLS” (Fred Hutchinson Cancer Research Center, priority 2019, published 2022).

Tests used:
MMTV-PyMT clusters [1] = test: Sulfo-NHS-biotin permeability of MMTV-PyMT clusters; type: cell-based, mouse; settings: treatment 1 hr prior to biotin
Experimental: (§1) FIG. 4C is a quantification of epigen immunogold signal; n=268 gold particles. To determine if microlumenal junctions were permeable, clusters were incubated with cell-impermeable sulfo-NHS-biotin. 1 mM EGTA was used as a positive control to disrupt cell-cell junctions. Biotin leak was quantified by measuring streptavidin-FITC fluorescence signal within clusters. n=3 biological replicates. n=75 clusters per condition. P-values=Mann-Whitney tests (FIG. 4D) Immunofluorescence of epigen in clusters with and without 1 mM EGTA treatment to disrupt cell-cell junctions was measured. […] P-value=Mann-Whitney test.
The accumulation of epigen within microlumina implied a mechanism for preventing ligand diffusion and signal reduction. To characterize the permeability of tumor cell clusters, a technique used to differentially label apical and basal proteins was adapted. Clusters were treated with a cell impermeable biotin (sulfo-NHS-biotin, 0.4 KDa) which labels membrane surface proteins but is excluded from the cytosol. At baseline, biotin was excluded from cell-cell junction membranes within MMTV-PyMT clusters and predominantly labeled the cell-matrix junction membranes (FIG. 4D).
To test the permeability of tumor cell clusters, NHS-biotin was added to a final concentration of 0.8 mM in PBS for 30 minutes at 37° C. […]
(§2) Phalloidin staining and DAPI were used to define membrane and nuclear areas, respectively. Using the freehand line tool in FIJI software, lines along cell-matrix (outer membrane), cell-cell (intercellular) membranes, and intracellular (cytosolic) areas were drawn and median fluorescence intensity was measured for each channel. […] Then the polygon selection tool was used to measure FITC-streptavidin intensity in the cluster core (excluding the cell-matrix contacts) and intensity was normalized to the area measured. To assess biotin permeability in tumor vs. stroma areas, mean FITC-streptavidin signal was measured in FIJI in equally sized squares in adjacent pure tumor or pure stroma areas. […]

MMTV-PyMT clusters [2] = test: Epigen immunofluorescence in MMTV-PyMT clusters after junction disruption; type: cell-based, mouse
Experimental: as §1, with “test. […]” for “test.”
as §2

tumor cell clusters = test: Cluster outgrowth on treatment with recombinant epigen; type: cell-based
[3] = system: HCC70 tumor cell clusters; test: Viable cell quantification of HCC70 clusters after 6 days of IFNγ treatment; type: cell-based, human
Source text: (§3) FIG. 7A is a qPCR measurement of EPGN expression in HCC70 clusters. n=3 biological replicates. P-values=unpaired t-tests. […] P-values=unpaired t-tests. FIG. 7C is a quantification of individual lung metastasis areas (lungs three weeks after tail vein injection of 200,000 Ctrl-kd or Epgn-kd HCC70 clustered cells). n (# of metastases): Ctrl-kd=299, Epgn-kd=87. n (# of mice): 7 per condition. Box plot=5-95%. P-value=Mann-Whitney test. […] Line=non-linear regression. Band=95% CI. n=3 biological replicates. P-value=extra sum-of-squares F test. […] P-value=Mann-Whitney test. FIG. 7F is a quantification of internal FITC-streptavidin intensity biotin leak-in assay of HCC70 clusters after 6 days of treatment with or without 3 ng/mL IFNγ). n=60 untreated clusters, 70 IFNγ treated clusters. n=3 biological replicates. P-value=Mann-Whitney test. FIG. 7G is a TEM of HCC70 clusters after 6 days with and without IFNγ treatment (3 ng/mL). MP=microvilli-like protrusions. J=cell-cell junctions. FIG. 7H is a qPCR of (left) RAB25 and (right) CLDN7 in HCC70 clusters after 0, 3, and 6 days with and without 3 ng/mL IFNγ treatment. n=3 biological replicates. P-value=unpaired t-test. FIGS. 7I and 7J: HCC70 single cells were aggregated for 24 hrs then treated with or without 2 ng/mL IFNγ treatment. After 6 days of treatment, clusters from each condition were injected by tail vein into NSG mice, with 200,000 viable clustered cells injected per animal. 3 weeks later, lung metastases were scored by staining for the human-specific marker CD298. Sizes of individual HCC70 metastases at 3 weeks after tail vein injection. n=8 mice/condition, 217 untreated metastases, 79 IFNγ pre-treated metastases. Box plot=5-95%. P-value=Mann-Whitney test (7I). […]
Human cell lines were cultured in complete media (DMEM or RPMI with penicillin/streptomycin+10% FBS) on tissue-culture treated plates, or in non-adherent plates supplemented with 2% Matrigel (v/v). […] Human organoids were cultured with 2% (v/v) or 100% growth factor reduced Matrigel (Corning) with HuMEC Ready media (Fisher 12752010).

MDA-MB-231 [4] = test: Viable cell quantification of MDA-MB-231 after 6 days of IFNγ treatment; type: cell-based, human; settings: MDA-MB-231, viable cells after 6 days of treatment
HCC70 clusters [5] = test: pHH3 immunofluorescence (mitotic cells) and cell death in HCC70 clusters; type: cell-based, human
HCC70 clusters [6] = test: Biotin leak-in permeability assay of HCC70 clusters; type: cell-based, human; settings: 6 days, 3 ng/mL
Source text: FIG. 7A is a qPCR measurement of EPGN expression in HCC70 clusters. n=3 biological replicates. P-values=unpaired t-tests. […] P-values=unpaired t-tests. FIG. 7C is a quantification of individual lung metastasis areas (lungs three weeks after tail vein injection of 200,000 Ctrl-kd or Epgn-kd HCC70 clustered cells). n (# of metastases): Ctrl-kd=299, Epgn-kd=87. n (# of mice): 7 per condition. Box plot=5-95%. P-value=Mann-Whitney test. […] Line=non-linear regression. Band=95% CI. n=3 biological replicates. P-value=extra sum-of-squares F test. […] P-value=Mann-Whitney test. FIG. 7F is a quantification of internal FITC-streptavidin intensity biotin leak-in assay of HCC70 clusters after 6 days of treatment with or without 3 ng/mL IFNγ). n=60 untreated clusters, 70 IFNγ treated clusters. n=3 biological replicates. […] 3 weeks later, lung metastases were scored by staining for the human-specific marker CD298. […]
Phalloidin staining and DAPI were used to define membrane and nuclear areas, respectively. Using the freehand line tool in FIJI software, lines along cell-matrix (outer membrane), cell-cell (intercellular) membranes, and intracellular (cytosolic) areas were drawn and median fluorescence intensity was measured for each channel. […] To assess biotin permeability in tumor vs. stroma areas, mean FITC-streptavidin signal was measured in FIJI in equally sized squares in adjacent pure tumor or pure stroma areas. […]

HCC70 clusters [7] = test: TEM of HCC70 clusters with and without IFNγ; type: cell-based, human; settings: 6 days, 3 ng/mL
Source text: as §3, with “After 6 days of treatment, clusters from each condition were injected by tail vein into NSG mice, with 200,000 viable clustered cells injected per animal.” left out, “CD298.” for “CD298. Sizes of individual HCC70 metastases at 3 weeks after tail vein injection. n=8 mice/condition, 217 untreated metastases, 79 IFNγ pre-treated metastases. Box plot=5-95%. P-value=Mann-Whitney test (7I).”

HCC70 clusters [8] = test: qPCR of RAB25 and CLDN7 in HCC70 clusters; type: cell-based, human; settings: 3 ng/mL
Source text: FIG. 7A is a qPCR measurement of EPGN expression in HCC70 clusters. n=3 biological replicates. P-values=unpaired t-tests. […] P-values=unpaired t-tests. FIG. 7C is a quantification of individual lung metastasis areas (lungs three weeks after tail vein injection of 200,000 Ctrl-kd or Epgn-kd HCC70 clustered cells). n (# of metastases): Ctrl-kd=299, Epgn-kd=87. n (# of mice): 7 per condition. Box plot=5-95%. P-value=Mann-Whitney test. […] Line=non-linear regression. Band=95% CI. n=3 biological replicates. P-value=extra sum-of-squares F test. […] P-value=Mann-Whitney test. FIG. 7F is a quantification of internal FITC-streptavidin intensity biotin leak-in assay of HCC70 clusters after 6 days of treatment with or without 3 ng/mL IFNγ). n=60 untreated clusters, 70 IFNγ treated clusters. n=3 biological replicates. P-value=Mann-Whitney test. FIG. 7G is a TEM of HCC70 clusters after 6 days with and without IFNγ treatment (3 ng/mL). MP=microvilli-like protrusions. J=cell-cell junctions. FIG. 7H is a qPCR of (left) RAB25 and (right) CLDN7 in HCC70 clusters after 0, 3, and 6 days with and without 3 ng/mL IFNγ treatment. n=3 biological replicates. P-value=unpaired t-test. […] 3 weeks later, lung metastases were scored by staining for the human-specific marker CD298. […]
Human or mouse tumor cell clusters were pelleted and snap frozen in liquid nitrogen. […] Data were analyzed using the ΔΔCt method.

MDA-MB-231 [9] = test: Biotin permeability of MDA-MB-231 clusters; type: cell-based, human; settings: MDA-MB-231, with or without treatment
HCC70 clusters [10] = test: Tail vein lung metastasis assay of IFNγ pre-treated HCC70 clusters in NSG mice; type: in vivo; settings: clusters pre-treated 6 days at 2 ng/mL, 3 weeks
Source text: FIG. 7A is a qPCR measurement of EPGN expression in HCC70 clusters. n=3 biological replicates. P-values=unpaired t-tests. […] P-values=unpaired t-tests. FIG. 7C is a quantification of individual lung metastasis areas (lungs three weeks after tail vein injection of 200,000 Ctrl-kd or Epgn-kd HCC70 clustered cells). n (# of metastases): Ctrl-kd=299, Epgn-kd=87. n (# of mice): 7 per condition. Box plot=5-95%. P-value=Mann-Whitney test. […] Line=non-linear regression. Band=95% CI. n=3 biological replicates. P-value=extra sum-of-squares F test. […] P-value=Mann-Whitney test. FIG. 7F is a quantification of internal FITC-streptavidin intensity biotin leak-in assay of HCC70 clusters after 6 days of treatment with or without 3 ng/mL IFNγ). n=60 untreated clusters, 70 IFNγ treated clusters. n=3 biological replicates. P-value=Mann-Whitney test. […] 3 weeks later, lung metastases were scored by staining for the human-specific marker CD298. […]
For single cell vs. cluster experiments, mTomato-PyMT organoids were dissociated to single cells at day 0 using Accumax (20 minutes at 37° C.). […] DIC images were taken before injection and assessed to ensure similar number and size of clusters injected between conditions. 3 weeks after tail vein injection mice were euthanized and lungs imaged under a dissecting microscope for quantification of fluorescent (metastatic) area. […]

[11] = HCC70 tumor cell clusters, viable cells after 6 days of treatment

C/C1=C/C(=O)O[C@@H]2C[C@@H](CC[C@H](C)/C=C\C=C\CC1)O[C@@](O)([C@@H]1CSC(=O)N1)C2 [Latrunculin A]
biotin leak into clusters (MMTV-PyMT clusters [1]): allowed biotin to leak between clustered cells

O=C(O)CN(CCOCCOCCN(CC(=O)O)CC(=O)O)CC(=O)O [calcium chelation, ethylene glycol-bis(β-aminoethyl ether)-N,N,N′,N′-tetraacetic acid]
biotin leak into clusters (MMTV-PyMT clusters [1]): biotin was able to leak into intercellular spaces | epigen signal in clusters (immunofluorescence) (MMTV-PyMT clusters [2]): marked loss of epigen signal

C[C@@H]1Cc2c(Cl)cc(C(=O)N[C@@H](Cc3ccccc3)C(=O)O)c(O)c2C(=O)O1 [ochratoxin A]
biotin leak into clusters (MMTV-PyMT clusters [1]): allowed biotin to leak between clustered cells

B1: recombinant epigen: Recombinant epigen (R&D 1127-EP), growth factor and EGFR ligand (protein, UniProt Q6UW88 23-154, looked up)
Epigen: AAVTVTPPITAQQGNWTVNKTEADNIEGPIALKFSHLCLEDHNSYCINGACAFHHELEKAICRCFTGYTGERCEHLTLTSYAVDSYEKYIAIGIGVGLLLSGFLVIFYCYIRKRCLKLKSPYNVCSGERRPL
outgrowth (tumor cell clusters): induced outgrowth in a dose-dependent manner

B2: interferon gamma (protein, UniProt P01579 24-161, looked up)
Interferon gamma: QDPYVKEAENLKKYFNAGHSDVADNGTLFLGILKNWKEESDRKIMQSQIVSFYFKLFKNFKDDQSIQKSVETIKEDMNVKFFNSNKKKRDDFEKLTNYSVTDLNVQRKAIHELIQVMAELSPAAKTGKRKRSQMLFRG
notes: a cytokine FDA-approved for use in patients
outgrowth ([3]; HCC70 clusters): markedly reduced outgrowth | IC50 [3, 11]: 0.58 ng/mL | IC75 [3, 11]: 0.97 ng/mL | IC50 (MDA-MB-231 [4]): 4.24 ng/mL | IC75 (MDA-MB-231 [4]): 22.3 ng/mL | cell death (HCC70 clusters [5]): not increased cell death | proliferation (% pHH3+ nuclei) (HCC70 clusters [5]; 6 days, 3 ng/mL): strong suppression of proliferation | intercellular permeability by biotin-leak assay (HCC70 clusters [6]): increased intercellular permeability | microlumenal spacing and electron-dense junctions by TEM (HCC70 clusters [7]): increased microlumenal spacing and decreased electron-dense junctions | CLDN7 expression (qPCR) (HCC70 clusters [8]): significant reduction | RAB25 expression (qPCR) (HCC70 clusters [8]): significant reduction | biotin permeability (MDA-MB-231 [9]): highly biotin-permeable in both the absence or presence of IFNγ treatment | number of lung metastases (HCC70 clusters [10]): fewer | size of lung metastases (HCC70 clusters [10]): significantly smaller
